Assay results as given in PMC7374715, “Conservation of Cdc14 phosphatase specificity in plant fungal pathogens: implications for antifungal development” (Scientific Reports, 2020).
Read-outs that look alike come from different tables or passages of the source.

Legend:
[1] = substrate: O=[N+]([O-])c1ccc(OP(=O)(O)O)cc1; format: biochemical, Saccharomyces cerevisiae; conditions: other: pNPP, 25 mM HEPES pH 7.5, 30 °C, mean of 3 ± SD
Experimental: (§1) Activities towards varying concentrations of para-nitrophenyl phosphate (pNPP) were measured in 100 µL assay buffer (25 mM HEPES pH 7.5, 2 mM TCEP, 1 mM EDTA, and 150 mM NaCl) at 30 °C. Enzyme concentrations were chosen to achieve absorbance values within the linear response range while satisfying the steady-state assumption where substrate consumption was < 1%. Reactions were initiated by enzyme addition and stopped with 1 N NaOH. Absorbance at 405 nm was measured on a Synergy H1 microplate reader (BioTek) and converted to product concentration using a para-nitrophenol standard curve. Initial rates were plotted as a function of substrate concentration and fit with the Michealis-Menten equation in GraphPad Prism (Version 8) to determine kcat and KM.

[2] = substrate: Cc1cc(=O)oc2c(F)c(OP(=O)(O)O)c(F)cc12; test: purified protein, by the assay type; conditions: other: DiFMUP, 0.5 nM enzyme, pH 7.5, 30 °C, mean of 3 ± SD
Experimental: All enzyme concentrations were 0.5 nM, except for PsCdc14 and VHR, which were assayed at 2 and 5 nM, respectively. Fluorescence intensity was measured continuously on a Synergy H1 microplate reader (BioTek) with excitation and emission wavelengths set at 358 and 450 nm, respectively. Fluorescence intensity was converted to product concentration using a 6,8-difluoro-4-methylumbelliferone standard curve. Background fluorescence was subtracted from each reaction and initial rates were calculated from the slope of the linear portion of the product concentration versus time plots. kcat and KM were calculated as described above.

[3] = substrate: O=[N+]([O-])c1ccc(OP(=O)(O)O)cc1; format: biochemical, Botrytis cinerea; conditions: other: pNPP, 25 mM HEPES pH 7.5, 30 °C, mean of 3 ± SD
Experimental: as §1

Row | Protein | Km [1] [mM] | kcat [1] [s⁻¹] | kcat/Km [1] [M⁻¹ s⁻¹] | Km [2] [mM] | kcat [2] [s⁻¹] | kcat/Km [2] [M⁻¹ s⁻¹] | Km [3] [mM] | kcat [3] [s⁻¹] | kcat/Km [3] [M⁻¹ s⁻¹]
1 | ScCdc14 (Saccharomyces cerevisiae S288C) (protein, made in house; host or cells: E. coli BL21 AI) MRRSVYLDNTIEFLRGRVYLGAYDYTPEDTDELVFFTVEDAIFYNSFHLDFGPMNIGHLYRFAVIFHEILNDPENANKAVVFYSSASTRQRANAACMLCCYMILVQAWTPHQVLQPLAQVDPPFMPFRDAGYSNADFEITIQDVVYGVWRAKEKGLIDLHSFNLESYEKYEHVEFGDFNVLTPDFIAFASPQEDHPKGYLATKSSHLNQPFKSVLNFFANNNVQLVVRLNSHLYNKKHFEDIGIQHLDLIFEDGTCPDLSIVKNFVGAAETIIKRGGKIAVHCKAGLGRTGCLIGAHLIYTYGFTANECIGFLRFIRPGMVVGPQQHWLYLHQNDFREWKYTTRISLKPSEAIGGLYPLISLEEYRLQKKKLKDDKRVAQNNIEGELRDLTMTPPSNGHGALSARNSSQPSTANNGSNSFKSSAVPQTSPGQPRKGQNGSNTIEDIN | 23 ± 1 | 1.12 ± 0.08 | 50 ± 4 | 0.011 ± 0.003 | 3 ± 0.4 | 253000 ± 34000 |  |  | 
2 | BcCdc14 (Botrytis cinerea B05.10) (protein) MHPMDYNSMLEWATLLPNDAHPGASAKKGPKDPREEDRPFHWLTYTDRLYLASYTTPPSPDTLFPYPEQQSSRRSPTKRSARAADGPSVVSDKREPPHYFSVDDTLLYNAFHHDFGPLHIGHLYRFAVQFHDILGAPENKNKPVVFWSKADARSRANAACLLATYMVLIQSWAPHLALAPIAQADPPLMPFRDAGYSQADYGITVQDVVYGVWRAKEQGFCALPQFDLEEYERYERVDQGDFNWLTPDFLAFASPQHHPVQPILPSSPLYASLPTTLEDVDTHPTLPTPFKNVLKHFTSRNIGLVVRLNSELYSPSFFTALGIEHLDMIFDDGTCPPLSVVRKFITLAHEMITVQKRGIAVHCKAGLGRTGCLIGAYLIYRYGFTANEIIAYMRFMRPGMVVGPQQHWLHLNQGTFREWWIEEQFEIRMKEKLANMAPVTPRKGHYTSKSQVVTPPNGNQRTPLGEVDNERSHSIGAQEDYLPAPTPGQPRK |  |  |  | 0.034 ± 0.007 | 1 ± 0.2 | 43100 ± 11000 | 16 ± 2 | 0.38 ± 0.003 | 24 ± 2
